From paper PMC5954120

Biological target: GST-Pmp23 (S. pneumoniae) (UniProt Q8DPY9)
Experiment: MST; 100 nM GST-Pmp23 labeled with NT-647, titrated with PBP2x (7 nM to 235 μM) or BSA (5 nM to 360 μM); 25 °C; 50 mM Tris-HCl, 150 mM NaCl, 10 mM MgCl2, 0.05% Tween-20; triplicates

Sequence of UniProt Q8DPY9 (Q8DPY9 whole entry): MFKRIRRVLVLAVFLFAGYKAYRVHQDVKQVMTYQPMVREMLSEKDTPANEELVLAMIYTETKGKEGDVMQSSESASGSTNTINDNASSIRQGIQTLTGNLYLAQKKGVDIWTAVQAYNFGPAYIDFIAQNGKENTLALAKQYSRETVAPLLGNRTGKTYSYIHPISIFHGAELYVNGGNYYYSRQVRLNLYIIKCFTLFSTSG

Kd: 9 µM
Substance: extracellular domain of PBP2x (domain or fragment)
